target: binding partner of C5A (XPA23); assay: Biacore K-off

Row | Binder | fold difference in affinity vs original
1 | C5A (XPA23) VL S53P (antibody, V domains shown) VH: EVQLLESGGGLVQPGGSLRLSCAASGFTFSKYFMFWVRQAPGKGLEWVSVISPSGGMTRYADSVKGRFTISRDNSKNTLYLQMNSLRAEDTAVYYCARVGYGGNSDYWGQGTLVTVSS VL: DIQMTQSPSSVSASVGDRLTIICRASQDINRWLAWYQQTPGNAPKLLIHSATPLQSGVPSRFSGSGSGTDFTLTINSLQPEDFATYYCQQADSFPLTFGGGTKVEIK | 4.92 fold
2 | C5A (XPA23) VL S93A (antibody, V domains shown) VH: EVQLLESGGGLVQPGGSLRLSCAASGFTFSKYFMFWVRQAPGKGLEWVSVISPSGGMTRYADSVKGRFTISRDNSKNTLYLQMNSLRAEDTAVYYCARVGYGGNSDYWGQGTLVTVSS VL: DIQMTQSPSSVSASVGDRLTIICRASQDINRWLAWYQQTPGNAPKLLIHSATSLQSGVPSRFSGSGSGTDFTLTINSLQPEDFATYYCQQADAFPLTFGGGTKVEIK | 1.16 fold
3 | C5A (XPA23) VL D92F (antibody, V domains shown) VH: EVQLLESGGGLVQPGGSLRLSCAASGFTFSKYFMFWVRQAPGKGLEWVSVISPSGGMTRYADSVKGRFTISRDNSKNTLYLQMNSLRAEDTAVYYCARVGYGGNSDYWGQGTLVTVSS VL: DIQMTQSPSSVSASVGDRLTIICRASQDINRWLAWYQQTPGNAPKLLIHSATSLQSGVPSRFSGSGSGTDFTLTINSLQPEDFATYYCQQAFSFPLTFGGGTKVEIK | 0.26 fold
4 | C5A (XPA23) VL A91V (antibody, V domains shown) VH: EVQLLESGGGLVQPGGSLRLSCAASGFTFSKYFMFWVRQAPGKGLEWVSVISPSGGMTRYADSVKGRFTISRDNSKNTLYLQMNSLRAEDTAVYYCARVGYGGNSDYWGQGTLVTVSS VL: DIQMTQSPSSVSASVGDRLTIICRASQDINRWLAWYQQTPGNAPKLLIHSATSLQSGVPSRFSGSGSGTDFTLTINSLQPEDFATYYCQQVDSFPLTFGGGTKVEIK | 0.51 fold
5 | C5A (XPA23) VL D92G (antibody, V domains shown) VH: EVQLLESGGGLVQPGGSLRLSCAASGFTFSKYFMFWVRQAPGKGLEWVSVISPSGGMTRYADSVKGRFTISRDNSKNTLYLQMNSLRAEDTAVYYCARVGYGGNSDYWGQGTLVTVSS VL: DIQMTQSPSSVSASVGDRLTIICRASQDINRWLAWYQQTPGNAPKLLIHSATSLQSGVPSRFSGSGSGTDFTLTINSLQPEDFATYYCQQAGSFPLTFGGGTKVEIK | 0.26 fold
6 | C5A (XPA23) VL S93I (antibody, V domains shown) VH: EVQLLESGGGLVQPGGSLRLSCAASGFTFSKYFMFWVRQAPGKGLEWVSVISPSGGMTRYADSVKGRFTISRDNSKNTLYLQMNSLRAEDTAVYYCARVGYGGNSDYWGQGTLVTVSS VL: DIQMTQSPSSVSASVGDRLTIICRASQDINRWLAWYQQTPGNAPKLLIHSATSLQSGVPSRFSGSGSGTDFTLTINSLQPEDFATYYCQQADIFPLTFGGGTKVEIK | 1.35 fold
7 | C5A (XPA23) VL D92I (antibody, V domains shown) VH: EVQLLESGGGLVQPGGSLRLSCAASGFTFSKYFMFWVRQAPGKGLEWVSVISPSGGMTRYADSVKGRFTISRDNSKNTLYLQMNSLRAEDTAVYYCARVGYGGNSDYWGQGTLVTVSS VL: DIQMTQSPSSVSASVGDRLTIICRASQDINRWLAWYQQTPGNAPKLLIHSATSLQSGVPSRFSGSGSGTDFTLTINSLQPEDFATYYCQQAISFPLTFGGGTKVEIK | 0.33 fold
8 | C5A (XPA23) VL S93F (antibody, V domains shown) VH: EVQLLESGGGLVQPGGSLRLSCAASGFTFSKYFMFWVRQAPGKGLEWVSVISPSGGMTRYADSVKGRFTISRDNSKNTLYLQMNSLRAEDTAVYYCARVGYGGNSDYWGQGTLVTVSS VL: DIQMTQSPSSVSASVGDRLTIICRASQDINRWLAWYQQTPGNAPKLLIHSATSLQSGVPSRFSGSGSGTDFTLTINSLQPEDFATYYCQQADFFPLTFGGGTKVEIK | 1.32 fold
9 | C5A (XPA23) VL A91L (antibody, V domains shown) VH: EVQLLESGGGLVQPGGSLRLSCAASGFTFSKYFMFWVRQAPGKGLEWVSVISPSGGMTRYADSVKGRFTISRDNSKNTLYLQMNSLRAEDTAVYYCARVGYGGNSDYWGQGTLVTVSS VL: DIQMTQSPSSVSASVGDRLTIICRASQDINRWLAWYQQTPGNAPKLLIHSATSLQSGVPSRFSGSGSGTDFTLTINSLQPEDFATYYCQQLDSFPLTFGGGTKVEIK | 0.39 fold
10 | C5A (XPA23) VL D92W (antibody, V domains shown) VH: EVQLLESGGGLVQPGGSLRLSCAASGFTFSKYFMFWVRQAPGKGLEWVSVISPSGGMTRYADSVKGRFTISRDNSKNTLYLQMNSLRAEDTAVYYCARVGYGGNSDYWGQGTLVTVSS VL: DIQMTQSPSSVSASVGDRLTIICRASQDINRWLAWYQQTPGNAPKLLIHSATSLQSGVPSRFSGSGSGTDFTLTINSLQPEDFATYYCQQAWSFPLTFGGGTKVEIK | 0.12 fold
11 | C5A (XPA23) VL S93G (antibody, V domains shown) VH: EVQLLESGGGLVQPGGSLRLSCAASGFTFSKYFMFWVRQAPGKGLEWVSVISPSGGMTRYADSVKGRFTISRDNSKNTLYLQMNSLRAEDTAVYYCARVGYGGNSDYWGQGTLVTVSS VL: DIQMTQSPSSVSASVGDRLTIICRASQDINRWLAWYQQTPGNAPKLLIHSATSLQSGVPSRFSGSGSGTDFTLTINSLQPEDFATYYCQQADGFPLTFGGGTKVEIK | 0.75 fold
12 | C5A (XPA23) VL D92L (antibody, V domains shown) VH: EVQLLESGGGLVQPGGSLRLSCAASGFTFSKYFMFWVRQAPGKGLEWVSVISPSGGMTRYADSVKGRFTISRDNSKNTLYLQMNSLRAEDTAVYYCARVGYGGNSDYWGQGTLVTVSS VL: DIQMTQSPSSVSASVGDRLTIICRASQDINRWLAWYQQTPGNAPKLLIHSATSLQSGVPSRFSGSGSGTDFTLTINSLQPEDFATYYCQQALSFPLTFGGGTKVEIK | 0.14 fold
13 | C5A (XPA23) VL S93L (antibody, V domains shown) VH: EVQLLESGGGLVQPGGSLRLSCAASGFTFSKYFMFWVRQAPGKGLEWVSVISPSGGMTRYADSVKGRFTISRDNSKNTLYLQMNSLRAEDTAVYYCARVGYGGNSDYWGQGTLVTVSS VL: DIQMTQSPSSVSASVGDRLTIICRASQDINRWLAWYQQTPGNAPKLLIHSATSLQSGVPSRFSGSGSGTDFTLTINSLQPEDFATYYCQQADLFPLTFGGGTKVEIK | 1.08 fold
14 | C5A (XPA23) VL S93V (antibody, V domains shown) VH: EVQLLESGGGLVQPGGSLRLSCAASGFTFSKYFMFWVRQAPGKGLEWVSVISPSGGMTRYADSVKGRFTISRDNSKNTLYLQMNSLRAEDTAVYYCARVGYGGNSDYWGQGTLVTVSS VL: DIQMTQSPSSVSASVGDRLTIICRASQDINRWLAWYQQTPGNAPKLLIHSATSLQSGVPSRFSGSGSGTDFTLTINSLQPEDFATYYCQQADVFPLTFGGGTKVEIK | 3.81 fold
15 | C5A (XPA23) VL D92A (antibody, V domains shown) VH: EVQLLESGGGLVQPGGSLRLSCAASGFTFSKYFMFWVRQAPGKGLEWVSVISPSGGMTRYADSVKGRFTISRDNSKNTLYLQMNSLRAEDTAVYYCARVGYGGNSDYWGQGTLVTVSS VL: DIQMTQSPSSVSASVGDRLTIICRASQDINRWLAWYQQTPGNAPKLLIHSATSLQSGVPSRFSGSGSGTDFTLTINSLQPEDFATYYCQQAASFPLTFGGGTKVEIK | 0.4 fold

From patent US20110118447A1
